We go through 1 molecule from PMC5053618 (2016).

For this test, the target named is T1, soluble EPCR ECD (truncated after Ser210) (Homo sapiens, UniProt Q9UNN8).
T1 chain: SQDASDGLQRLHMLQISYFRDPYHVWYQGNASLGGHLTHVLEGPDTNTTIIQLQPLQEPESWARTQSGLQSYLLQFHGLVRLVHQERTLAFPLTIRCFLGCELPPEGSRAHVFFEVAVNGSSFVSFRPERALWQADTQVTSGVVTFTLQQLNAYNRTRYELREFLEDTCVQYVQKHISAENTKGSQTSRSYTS
In words: solid-phase plate binding assay.

B1: activated protein C (protein)
chain 1: ANSFLEELRHSSLERECIEEICDFEEAKEIFQNVDDTLAFWSKHVDGDQCLVLPLEHPCASLCCGHGTCIDGIGSFSCDCRSGWEGRFCQREVSFLNCSLDNGGCTHYCLEEVGWRRCSCAPGYKLGDDLLQCHPAVKFPCGRPWKRMEKKRSHL
chain 2: LIDGKMTRRGDSPWQVVLLDSKKKLACGAVLIHPSWVLTAAHCMDESKKLLVRLGEYDLRRWEKWELDLDIKEVFVHPNYSKSTTDNDIALLHLAQPATLSQTIVPICLPDSGLAERELNQAGQETLVTGWGYHSSREKEAKRNRTFVLNFIKIPVVPHNECSEVMSNMVSENMLCAGILGDRQDACEGDSGGPMVASFHGTWFLVGLVSWGEGCGLLHNYGVYTKVSRYLDWIHGHIRDKEAPQKSWAP
modifications: APC biotinylated with biotin-FPR-chloromethylketone, Ca2+ and Mg2+
As to B1, the affinity, expressed as Kd, was 24 nM.
